Where a chain is given by its changes, count along the chain named. Numbers in names are those of the source.
T1: integrin β3(P685-F727) TM peptide C687S W715F (human, UniProt P05106 711-753, C687S | W715F)
T1 chain (looked up): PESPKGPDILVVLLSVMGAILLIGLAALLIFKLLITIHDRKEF

T2: integrin β3(P685-F727) TM peptide C687S W715I (human, UniProt P05106 711-753, C687S | W715I)
T2 chain (looked up): T1 chain (looked up) with F31I

T3: integrin β3(P685-F727) TM peptide C687S W715A (human, UniProt P05106 711-753, C687S | W715A)
T3 chain (looked up): T1 chain (looked up) with F31A

T4: human integrin β3(P685-F727) TM peptide incorporating β3(C687S) (human, UniProt P05106 711-753, C687S)
T4 chain (looked up): T1 chain (looked up) with F31W

T5: integrin β3(P685-F727) TM peptide C687S W715H (human, UniProt P05106 711-753, C687S | W715H)
T5 chain (looked up): T1 chain (looked up) with F31H

T6: integrin β3(P685-F727) TM peptide C687S W715Y (human, UniProt P05106 711-753, C687S | W715Y)
T6 chain (looked up): T1 chain (looked up) with F31Y

B1: human integrin αIIb(A958-P998) TM peptide (peptide)
chain: not shown
B2: integrin αIIb(A958-P998) TM peptide W967V (peptide)
chain: not shown
B3: integrin αIIb(A958-P998) TM peptide W967F (peptide)
chain: not shown
B4: integrin αIIb(A958-P998) TM peptide W967Y (peptide)
chain: not shown
B5: integrin αIIb(A958-P998) TM peptide W967H (peptide)
chain: not shown

Target: T1, integrin β3(P685-F727) TM peptide C687S …
Assay: ITC

| KXY (association equilibrium constant on the mole fraction scale) | dH | Binder |
| --- | --- | --- |
| 2230 ± 50 | -17.2 ± 0.2 kcal/mol | B1 |

Target: T2, integrin β3(P685-F727) TM peptide C687S …
Assay: ITC

| KXY (association equilibrium constant on the mole fraction scale) | dH | Binder |
| --- | --- | --- |
| 2600 ± 70 | -9.6 ± 0.1 kcal/mol | B1 |

Target: T3, integrin β3(P685-F727) TM peptide C687S …
Assay: ITC

| KXY (association equilibrium constant on the mole fraction scale) | dH | Binder |
| --- | --- | --- |
| 1300 ± 40 | -15.5 ± 0.3 kcal/mol | B1 |

Target: T4, human integrin β3(P685-F727) TM peptide …
Assay: ITC

| KXY (association equilibrium constant on the mole fraction scale) | dH | Binder |
| --- | --- | --- |
| 3250 ± 60 | -16 ± 0.1 kcal/mol | B1 |
| 4450 ± 80 | -13.1 ± 0.1 kcal/mol | B2 |
| 7000 ± 200 | -14.9 ± 0.2 kcal/mol | ALEERAIPIHVVLVGVLGGLLLLTILVLAMWKVGFFKRNRP (peptide, UniProt P08514 989-1029, looked up) [integrin αIIb(A958-P998) TM peptide W967H/W968V] |
| 9800 ± 400 | -14 ± 0.2 kcal/mol | ALEERAIPIYVVLVGVLGGLLLLTILVLAMWKVGFFKRNRP (peptide, UniProt P08514 989-1029, looked up) [integrin αIIb(A958-P998) TM peptide W967Y/W968V] |
| 1000 ± 20 | -16.4 ± 0.2 kcal/mol | ALEERAIPIWWVLVGVLGGLLLLTILVLAMFKVGFFKRNRP (peptide, UniProt P08514 989-1029, looked up) [integrin αIIb(A958-P998) TM peptide W988F] |
| 6400 ± 200 | -18.4 ± 0.2 kcal/mol | ALEERAIPIAVVLVGVLGGLLLLTILVLAMWKVGFFKRNRP (peptide, UniProt P08514 989-1029, looked up) [integrin αIIb(A958-P998) TM peptide W967A/W968V] |
| 6500 ± 200 | -15.7 ± 0.2 kcal/mol | ALEERAIPIFVVLVGVLGGLLLLTILVLAMWKVGFFKRNRP (peptide, UniProt P08514 989-1029, looked up) [integrin αIIb(A958-P998) TM peptide W967F/W968V] |
| 3540 ± 40 | -16.4 ± 0.1 kcal/mol | ALEERAIPIWWVLVGVLGGLLLLTILVLAMHKVGFFKRNRP (peptide, UniProt P08514 989-1029, looked up) [integrin αIIb(A958-P998) TM peptide W988H] |
| 4030 ± 90 | -12.6 ± 0.1 kcal/mol | B3 |
| 3320 ± 70 | -17.3 ± 0.1 kcal/mol | ALEERAIPIWWVLVGVLGGLLLLTILVLAMAKVGFFKRNRP (peptide, UniProt P08514 989-1029, looked up) [integrin αIIb(A958-P998) TM peptide W988A] |
| 4700 ± 100 | -13.7 ± 0.2 kcal/mol | B4 |
| 2530 ± 50 | -15.4 ± 0.1 kcal/mol | B5 |
| 2900 ± 100 | -13.7 ± 0.2 kcal/mol | ALEERAIPIWWVLVGVLGGLLLLTILVLAMVKVGFFKRNRP (peptide, UniProt P08514 989-1029, looked up) [integrin αIIb(A958-P998) TM peptide W988V] |
| 13200 ± 600 | -14.3 ± 0.2 kcal/mol | ALEERAIPIWVVLVGVLGGLLLLTILVLAMWKVGFFKRNRP (peptide, UniProt P08514 989-1029, looked up) [integrin αIIb(A958-P998) TM peptide W968V] |
| 2680 ± 60 | -17.8 ± 0.2 kcal/mol | ALEERAIPIVVVLVGVLGGLLLLTILVLAMWKVGFFKRNRP (peptide, UniProt P08514 989-1029, looked up) [integrin αIIb(A958-P998) TM peptide W967V/W968V] |
| 2320 ± 50 | -19.2 ± 0.2 kcal/mol | ALEERAIPIWWVLVGVLGGLLLLTILVLAMYKVGFFKRNRP (peptide, UniProt P08514 989-1029, looked up) [integrin αIIb(A958-P998) TM peptide W988Y] |

Target: T5, integrin β3(P685-F727) TM peptide C687S …
Assay: ITC

| KXY (association equilibrium constant on the mole fraction scale) | dH | Binder |
| --- | --- | --- |
| 820 ± 40 | -8.7 ± 0.2 kcal/mol | B1 |

Target: T6, integrin β3(P685-F727) TM peptide C687S …
Assay: ITC

| KXY (association equilibrium constant on the mole fraction scale) | dH | Binder |
| --- | --- | --- |
| 1320 ± 40 | -14.2 ± 0.2 kcal/mol | B1 |

Target: T2, integrin β3(P685-F727) TM peptide C687S …
Assay: intrinsic tryptophan fluorescence emission

| binding result | Binder |
| --- | --- |
| binds | ALEERAIPIVWVLVGVLGGLLLLTILVLAMHKVGFFKRNRP (peptide, UniProt P08514 989-1029, looked up) [integrin αIIb(A958-P998) TM peptide W988H/W967V] |

Target: T4, human integrin β3(P685-F727) TM peptide …
Assay: intrinsic tryptophan fluorescence emission

| binding result | Binder |
| --- | --- |
| binds | ALEERAIPIVVVLVGVLGGLLLLTILVLAMHKVGFFKRNRP (peptide, UniProt P08514 989-1029, looked up) [integrin αIIb(A958-P998) TM peptide W967V/W968V/W988H] |

Reference: paper PMC11025564 (The journal of physical chemistry. B, 2018)
